The record followed here is article doi:10.1101/2024.09.05.611129 (bioRxiv, 2024).

This series concerns the molecule itself. Description: SEC.

B1: Mycobacterium tuberculosis catalase-peroxidase KatG (enzyme)
chain: MPEQHPPITETTTGAASNGCPVVGHMKYPVEGGGNQDWWPNRLNLKVLHQNPAVADPMGAAFDYAAEVATIDVDALTRDIEEVMTTSQPWWPADYGHYGPLFIRMAWHAAGTYRIHDGRGGAGGGMQRFAPLNSWPDNASLDKARRLLWPVKKKYGKKLSWADLIVFAGNCALESMGFKTFGFGFGRVDQWEPDEVYWGKEATWLGDERYSGKRDLENPLAAVQMGLIYVNPEGPNGNPDPMAAAVDIRETFRRMAMNDVETAALIVGGHTFGKTHGAGPADLVGPEPEAAPLEQMGLGWKSSYGTGTGKDAITSGIEVVWTNTPTKWDNSFLEILYGYEWELTKSPAGAWQYTAKDGAGAGTIPDPFGGPGRSPTMLATDLSLRVDPIYERITRRWLEHPEELADEFAKAWYKLIHRDMGPVARYLGPLVPKQTLLWQDPVPAVSHDLVGEAEIASLKSQIRASGLTVSQLVSTAWAAASSFRGSDKRGGANGGRIRLQPQVGWEVNDPDGDLRKVIRTLEEIQESFNSAAPGNIKVSFADLVVLGGCAAIEKAAKAAGHNITVPFTPGRTDASQEQTDVESFAVLEPKADGFRNYLGKGNPLPAEYMLLDKANLLTLSAPEMTVLVGGLRVLGANYKRLPLGVFTEASESLTNDFFVNLLDMGITWEPSPADDGTYQGKDGSGKVKWTGSRVDLVFGSNSELRALVEVYGADDAQPKFVQDFVAAWDKVMNLDRFDVR
With B1, the “stoichiometry N” value was 2.
